The results in this text go back to the RNAGym collection of RNA variant scans (doi:10.1093/molbev/msab373).

Sequences and labels used below:
B1: Azoarcus group I ribozyme (parent)
chain: GUGCCUUGCGCCGGGAAACCACGCAAGGGAUGGUGUCAAAUUCGGCGAAACCUAAGCGCCCGCCCGGGCGUAUGGCAACGCCGAGCCAAGCUUCGGCGCCUGCGCCGAUGAAGGUGUAGAGACUAGACGGCACCCACCUAAGGCAAACGCUAUGGUGAAGGCAUAGUCCAGGGAGUGGCGAAAGUCACACAAACCGG

Variants of B1 are the subject of this data set. As to the kind of experiment: reverse-splicing fitness (ratio to wild type); higher = more active; in vitro selection; Mg2+ level not given. In outline: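 An in vitro group I ribozyme library with randomized positions was T7-transcribed and gel-purified. In triplicate, 10 pmol RNA in EPPS pH 7.5 was reacted with 50 pmoles of a 30-nt RNA substrate for 1 h at 37 °C across several added MgCl2 levels (1–48 mM), then stopped with EDTA. Products were reverse transcribed from a substrate-complementary primer, PCR-amplified and sequenced (HiSeq 4000). Fitness is a variant's read proportion after selection over that before, normalised to wild type.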
In the case of GUGCCUUGCGCCGGGAAACCACGCAAGGGAUGGUGUCAAAUUCGGCGAAACCUAAGCGCCCGCCCGGGCGUAUGGCAACGCUGAGCCAAGCUUCGGCGCCUGCGCCGAUGAAGGUGUAGCGACUAGACGGCACCCACCUAAGGCGAACGUUAUGGUGAAGGCAUAGUCGAGGGAGCGGCGAAAGUCACACAAACCGG [C82U A120C A145G C150U C169G U176C], the reverse-splicing fitness stood at 0.0155.

In the case of GUGCCUUGCGCCGGGAAACCACGCAAGGGAUGGUGUCAAAUUCGGCGAAACCUAAGCGCCCGCCCGGGCGUAUGGCAACGCUGAGCCAAGCUUCGGCGCCUGCGCCGAUGAAGGUGUAGCGACUAGACGGCACCCACCUAAGGCGAACGUUAUGGUGAAGGCAUAGUCGAGGGAGGGGCGAAAGUCACACAAACCGG [C82U A120C A145G C150U C169G U176G], the reverse-splicing fitness is 0.00466.

For the variant GUGCCUUGCGCCGGGAAACCACGCAAGGGAUGGUGUCAAAUUCGGCGAAACCUAAGCGCCCGCCCGGGCGUAUGGCAACGCUGAGCCAAGCUUCGGCGCCUGCGCCGAUGAAGGUGUAGCGACUAGACGGCACCCACCUAAGGCGAACGUUAUGGUGAAGGCAUAGUCGAGGGAGAGGCGAAAGUCACACAAACCGG [C82U A120C A145G C150U C169G U176A], the reverse-splicing fitness was found to be 0.0128.

Turning to GUGCCUUGCGCCGGGAAACCACGCAAGGGAUGGUGUCAAAUUCGGCGAAACCUAAGCGCCCGCCCGGGCGUAUGGCAACGCUGAGCCAAGCUUCGGCGCCUGCGCCGAUGAAGGUGUAGCGACUAGACGGCACCCACCUAAGGCGAACGUUAUGGUGAAGGCAUAGUCAAGGGAGUGGCGAAAGUCACACAAACCGG [C82U A120C A145G C150U C169A], the reverse-splicing fitness came out at 0.0101.

For GUGCCUUGCGCCGGGAAACCACGCAAGGGAUGGUGUCAAAUUCGGCGAAACCUAAGCGCCCGCCCGGGCGUAUGGCAACGCUGAGCCAAGCUUCGGCGCCUGCGCCGAUGAAGGUGUAGCGACUAGACGGCACCCACCUAAGGCGAACGUUAUGGUGAAGGCAUAGUCGAGGGAGUGGCGAAAGUCACACAAACCGG [C82U A120C A145G C150U C169G], the reverse-splicing fitness stood at 0.00809.

As for GUGCCUUGCGCCGGGAAACCACGCAAGGGAUGGUGUCAAAUUCGGCGAAACCUAAGCGCCCGCCCGGGCGUAUGGCAACGCUGAGCCAAGCUUCGGCGCCUGCGCCGAUGAAGGUGUAGCGACUAGACGGCACCCACCUAAGGCGAACGUUAUGGUGAAGGCAUAGUCUAGGGAGUGGCGAAAGUCACACAAACCGG [C82U A120C A145G C150U C169U], the reverse-splicing fitness was determined as 0.0209.

Take GUGCCUUGCGCCGGGAAACCACGCAAGGGAUGGUGUCAAAUUCGGCGAAACCUAAGCGCCCGCCCGGGCGUAUGGCAACGCUGAGCCAAGCUUCGGCGCCUGCGCCGAUGAAGGUGUAGCGACUAGACGGCACCCACCUAAGGCGAACGUUAUGGUGAAGGCAUAGUCUAGGGAGCGGCGAAAGUCACACAAACCGG [C82U A120C A145G C150U C169U U176C]: the reverse-splicing fitness was found to be 0.0169.

GUGCCUUGCGCCGGGAAACCACGCAAGGGAUGGUGUCAAAUUCGGCGAAACCUAAGCGCCCGCCCGGGCGUAUGGCAACGCUGAGCCAAGCUUCGGCGCCUGCGCCGAUGAAGGUGUAGCGACUAGACGGCACCCACCUAAGGCGAACGUUAUGGUGAAGGCAUAGUCUAGGGAGGGGCGAAAGUCACACAAACCGG [C82U A120C A145G C150U C169U U176G]: the reverse-splicing fitness came out at 0.00416.

For the variant GUGCCUUGCGCCGGGAAACCACGCAAGGGAUGGUGUCAAAUUCGGCGAAACCUAAGCGCCCGCCCGGGCGUAUGGCAACGCUGAGCCAAGCUUCGGCGCCUGCGCCGAUGAAGGUGUAGCGACUAGACGGCACCCACCUAAGGCGAACGUUAUGGUGAAGGCAUAGUCUAGGGAGAGGCGAAAGUCACACAAACCGG [C82U A120C A145G C150U C169U U176A], the reverse-splicing fitness is 0.0165.

GUGCCUUGCGCCGGGAAACCACGCAAGGGAUGGUGUCAAAUUCGGCGAAACCUAAGCGCCCGCCCGGGCGUAUGGCAACGCUGAGCCAAGCUUCGGCGCCUGCGCCGAUGAAGGUGUAGCGACUAGACGGCACCCACCUAAGGCGAACGUUAUGGUGAAGGCAUAGUCAAGGGAGCGGCGAAAGUCACACAAACCGG [C82U A120C A145G C150U C169A U176C]: the reverse-splicing fitness is 0.0131.

With GUGCCUUGCGCCGGGAAACCACGCAAGGGAUGGUGUCAAAUUCGGCGAAACCUAAGCGCCCGCCCGGGCGUAUGGCAACGCUGAGCCAAGCUUCGGCGCCUGCGCCGAUGAAGGUGUAGCGACUAGACGGCACCCACCUAAGGCGAACGUUAUGGUGAAGGCAUAGUCAAGGGAGGGGCGAAAGUCACACAAACCGG [C82U A120C A145G C150U C169A U176G], the reverse-splicing fitness came out at 0.00464.

For GUGCCUUGCGCCGGGAAACCACGCAAGGGAUGGUGUCAAAUUCGGCGAAACCUAAGCGCCCGCCCGGGCGUAUGGCAACGCUGAGCCAAGCUUCGGCGCCUGCGCCGAUGAAGGUGUAGCGACUAGACGGCACCCACCUAAGGCGAACGUUAUGGUGAAGGCAUAGUCAAGGGAGAGGCGAAAGUCACACAAACCGG [C82U A120C A145G C150U C169A U176A], the reverse-splicing fitness was found to be 0.0152.

For the variant GUGCCUUGCGCCGGGAAACCACGCAAGGGAUGGUGUCAAAUUCGGCGAAACCUAAGCGCCCGCCCGGGCGUAUGGCAACGCUGAGCCAAGCUUCGGCGCCUGCGCCGAUGAAGGUGUAGCGACUAGACGGCACCCACCUAAGGCGAACGGUAUGGUGAAGGCAUAGUCUAGGGAGAGGCGAAAGUCACACAAACCGG [C82U A120C A145G C150G C169U U176A], the reverse-splicing fitness was 0.0113.

Consider GUGCCUUGCGCCGGGAAACCACGCAAGGGAUGGUGUCAAAUUCGGCGAAACCUAAGCGCCCGCCCGGGCGUAUGGCAACGCUGAGCCAAGCUUCGGCGCCUGCGCCGAUGAAGGUGUAGCGACUAGACGGCACCCACCUAAGGCGAACGGUAUGGUGAAGGCAUAGUCUAGGGAGGGGCGAAAGUCACACAAACCGG [C82U A120C A145G C150G C169U U176G], for which the reverse-splicing fitness turned out to be 0.00619.

GUGCCUUGCGCCGGGAAACCACGCAAGGGAUGGUGUCAAAUUCGGCGAAACCUAAGCGCCCGCCCGGGCGUAUGGCAACGCUGAGCCAAGCUUCGGCGCCUGCGCCGAUGAAGGUGUAGCGACUAGACGGCACCCACCUAAGGCGAACGGUAUGGUGAAGGCAUAGUCUAGGGAGCGGCGAAAGUCACACAAACCGG [C82U A120C A145G C150G C169U U176C]: the reverse-splicing fitness is 0.0111.
